Experimental data from article PMC6713926, “Structural Basis for Properdin Oligomerization and Convertase Stimulation in the Human Complement System” (Frontiers in Immunology, 2019).

Key:
Biotinylated C3b = molecular target: T1, Biotinylated C3b (human, UniProt P01024 23-667; P01024 749-1663, biotin (Maleimide-PEG2-Biotin)); test: BLI; biotinylated C3b on streptavidin sensors; FB variants at 40 μg/mL; 20 mM MES pH 6.0, 100 mM NaCl, 0.05% Tween, 1 mg/mL BSA, 5 mM MgCl2; settings: both partners purified
T1 construct: complement C3, human, beta chain; complement C3, human, alpha' chain of C3b; also called biotin-C3b; immobilized C3b; source: made from plasma C3 by trypsin cleavage in the presence of Maleimide-PEG2-Biotin, purified by cation exchange

[1] = molecular target: T2, WT FP, recombinant oligomeric properdin (human, UniProt P27918); test: pull-down; 50 μg hFPNb1 added to HEK293F supernatants of WT FP or E244 mutants, captured on Ni-NTA beads, washed with 500 mM NaCl, eluted with 400 mM imidazole; settings: one partner purified
T2 construct: properdin (FP), human, wild type; Secreted oligomers; preparations of ~50% dimer and 50% trimer, and of ~90% dimer and 10% trimer, were used; also called oligomeric FP; dimeric FP; source: also in cell supernatant

[2] = molecular target: T3, FPhtΔ3, FP head-tail monomer without TSR3 (Homo sapiens, UniProt P27918); test: crystal structure; C3bBbSCIN-FPhtΔ3-hFPNb1 complex, 6.2 Å; 100 mM NaCl, 5% PEG4000, 10 mM MgCl2, 100 mM sodium cacodylate pH 5.8; settings: both partners purified
T3 construct: properdin (FP), human, TB-TSR2 (FPhΔ3), made from FPh by a stop codon between TSR2 and TSR3; properdin (FP), human, TSR4-6 tail fragment (FPt); The methods name FPhtΔ3 for the crystals with C3bBbSCIN and hFPNb1, the results FPcΔ3; also called FPcΔ3 (so called in the results for the nanobody complex); FPΔ3
T3 sequence (P27918 whole entry, looked up, stated change not applied, the tested form may be a part): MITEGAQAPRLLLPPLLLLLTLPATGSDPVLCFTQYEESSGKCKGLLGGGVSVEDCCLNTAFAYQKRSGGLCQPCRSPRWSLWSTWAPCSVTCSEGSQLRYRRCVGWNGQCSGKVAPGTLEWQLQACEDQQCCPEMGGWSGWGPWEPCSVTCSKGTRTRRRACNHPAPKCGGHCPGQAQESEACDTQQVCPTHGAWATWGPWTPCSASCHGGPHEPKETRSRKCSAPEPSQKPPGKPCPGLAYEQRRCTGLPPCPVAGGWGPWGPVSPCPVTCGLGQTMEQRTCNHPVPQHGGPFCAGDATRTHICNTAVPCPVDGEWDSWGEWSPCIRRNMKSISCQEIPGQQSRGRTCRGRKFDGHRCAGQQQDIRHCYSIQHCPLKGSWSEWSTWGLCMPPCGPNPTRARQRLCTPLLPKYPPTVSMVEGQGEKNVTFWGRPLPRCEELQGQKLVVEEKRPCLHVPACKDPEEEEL

T2 sequence (P27918 28-469): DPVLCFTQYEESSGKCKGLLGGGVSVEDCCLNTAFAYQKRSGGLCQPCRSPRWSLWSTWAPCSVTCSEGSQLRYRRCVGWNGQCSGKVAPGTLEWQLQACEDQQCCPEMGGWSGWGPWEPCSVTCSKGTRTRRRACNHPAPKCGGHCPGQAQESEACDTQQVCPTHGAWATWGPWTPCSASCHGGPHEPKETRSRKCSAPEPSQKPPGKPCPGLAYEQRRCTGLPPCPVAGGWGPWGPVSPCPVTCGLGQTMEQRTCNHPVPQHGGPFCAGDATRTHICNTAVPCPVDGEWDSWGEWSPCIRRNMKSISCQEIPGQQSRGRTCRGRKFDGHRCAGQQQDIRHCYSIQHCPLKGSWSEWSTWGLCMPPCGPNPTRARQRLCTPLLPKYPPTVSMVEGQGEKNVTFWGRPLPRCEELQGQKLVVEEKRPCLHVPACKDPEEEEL
T1 sequence (P01024 23-667, chain 1 of 2): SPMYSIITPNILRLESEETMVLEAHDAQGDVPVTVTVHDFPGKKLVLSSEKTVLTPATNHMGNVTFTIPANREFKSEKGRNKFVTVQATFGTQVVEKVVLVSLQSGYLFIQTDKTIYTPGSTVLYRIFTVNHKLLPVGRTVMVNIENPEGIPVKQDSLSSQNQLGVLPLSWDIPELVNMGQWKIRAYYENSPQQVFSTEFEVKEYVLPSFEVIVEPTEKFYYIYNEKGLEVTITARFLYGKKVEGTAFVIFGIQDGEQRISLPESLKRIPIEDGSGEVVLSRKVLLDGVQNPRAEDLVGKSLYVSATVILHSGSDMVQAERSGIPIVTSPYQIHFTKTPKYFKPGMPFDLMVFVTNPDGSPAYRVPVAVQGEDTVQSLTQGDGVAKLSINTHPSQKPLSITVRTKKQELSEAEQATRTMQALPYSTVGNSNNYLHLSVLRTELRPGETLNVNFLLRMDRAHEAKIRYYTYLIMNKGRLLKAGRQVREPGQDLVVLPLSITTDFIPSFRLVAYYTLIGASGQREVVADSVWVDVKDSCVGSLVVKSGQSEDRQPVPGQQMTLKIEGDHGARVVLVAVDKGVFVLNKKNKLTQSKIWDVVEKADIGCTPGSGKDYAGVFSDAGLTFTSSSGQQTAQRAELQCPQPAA
T1 sequence (P01024 749-1663, chain 2 of 2): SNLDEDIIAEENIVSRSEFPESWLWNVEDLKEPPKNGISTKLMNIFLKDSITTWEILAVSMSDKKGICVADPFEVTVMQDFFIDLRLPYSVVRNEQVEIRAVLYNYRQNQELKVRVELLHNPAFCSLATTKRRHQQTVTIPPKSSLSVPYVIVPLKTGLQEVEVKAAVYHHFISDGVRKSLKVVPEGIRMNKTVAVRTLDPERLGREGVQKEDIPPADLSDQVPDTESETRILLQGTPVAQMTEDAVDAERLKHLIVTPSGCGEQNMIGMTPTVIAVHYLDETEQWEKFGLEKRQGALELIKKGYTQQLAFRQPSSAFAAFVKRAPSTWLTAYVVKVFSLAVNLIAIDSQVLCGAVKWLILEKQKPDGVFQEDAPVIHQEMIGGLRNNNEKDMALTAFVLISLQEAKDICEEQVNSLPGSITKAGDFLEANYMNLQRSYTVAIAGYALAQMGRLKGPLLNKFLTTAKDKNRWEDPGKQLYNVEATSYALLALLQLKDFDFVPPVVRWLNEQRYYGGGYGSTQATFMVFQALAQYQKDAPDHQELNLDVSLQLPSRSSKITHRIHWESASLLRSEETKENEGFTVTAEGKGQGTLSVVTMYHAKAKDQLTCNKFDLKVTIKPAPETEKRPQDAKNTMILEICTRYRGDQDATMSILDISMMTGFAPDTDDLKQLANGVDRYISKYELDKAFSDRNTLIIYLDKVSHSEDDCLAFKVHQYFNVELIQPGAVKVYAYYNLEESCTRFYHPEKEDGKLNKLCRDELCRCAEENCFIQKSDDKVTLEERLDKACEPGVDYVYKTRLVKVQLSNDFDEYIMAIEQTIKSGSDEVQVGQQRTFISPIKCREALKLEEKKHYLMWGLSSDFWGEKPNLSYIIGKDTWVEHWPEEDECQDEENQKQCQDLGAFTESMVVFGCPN

B1: Recombinant FB D279G, S699A, K348A, L349A, K350A (enzyme, human, UniProt P00751 26-764, looked up)
chain: TPWSLARPQGSCSLEGVEIKGGSFRLLQEGQALEYVCPSGFYPYPVQTRTCRSTGSWSTLKTQDQKTVRKAECRAIHCPRPHDFENGEYWPRSPYYNVSDEISFHCYDGYTLRGSANRTCQVNGRWSGQTAICDNGAGYCSNPGIPIGTRKVGSQYRLEDSVTYHCSRGLTLRGSQRRTCQEGGSWSGTEPSCQDSFMYDTPQEVAEAFLSSLTETIEGVDAEDGHGPGEQQKRKIVLDPSGSMNIYLVLDGSGSIGASNFTGAKKCLVNLIEKVASYGVKPRYGLVTYATYPKIWVKVSEADSSNADWVTKQLNEINYEDHAAASGTNTKKALQAVYSMMSWPDDVPPEGWNRTRHVIILMTDGLHNMGGDPITVIDEIRDLLYIGKDRKNPREDYLDVYVFGVGPLVNQVNINALASKKDNEQHVFKVKDMENLEDVFYQMIDESQSLSLCGMVWEHRKGTDYHKQPWQAKISVIRPSKGHESCMGAVVSEYFVLTAAHCFTVDDKEHSIKVSVGGEKRDLEIEVVLFHPNYNINGKKEAGIPEFYDYDVALIKLKNKLKYGQTIRPICLPCTEGTTRALRLPPTTTCQQQKEELLPAQDIKALFVSEEEKKLTRKEVYIKNGDKKGSCERDAQYAPGYDKVKDISEVVTPRFLCTGGVSPYADPNTCRGDAGGPLIVHKRSRFIQVGVISWGVVDVCKNQKRQKQVPAHARDFHINLFQVLPWLKEKLQDEDLGFL
notes: complement factor B (FB), human; also called FB AAA; 348-AAA-350
- binding result (Biotinylated C3b): binds

B2: hFPNb1, FP specific non-inhibitory nanobody (VHH)
VHH: QVQLVESGGGLVQAGGSLRLSCAASERTFTIYAMGWFRQAPGKEREFVAAISRSGENTDYADSVKGRFTISRDNNKNTISLQMNSLKPEDTAVYYCAAGRAILVHTTKKEYDHWGQGTQVTVSS
notes: llama nanobody selected by phage display against FPc
- binding result [1]: binds
- binding result [2]: binds
